From publication PMC10760178

Target: Catabolite Repressor Activator protein (Cra), wild-type, untagged (E. coli) (UniProt P0ACP1)
Experiment: BLI

UniProt P0ACP1, sequence (P0ACP1 whole entry): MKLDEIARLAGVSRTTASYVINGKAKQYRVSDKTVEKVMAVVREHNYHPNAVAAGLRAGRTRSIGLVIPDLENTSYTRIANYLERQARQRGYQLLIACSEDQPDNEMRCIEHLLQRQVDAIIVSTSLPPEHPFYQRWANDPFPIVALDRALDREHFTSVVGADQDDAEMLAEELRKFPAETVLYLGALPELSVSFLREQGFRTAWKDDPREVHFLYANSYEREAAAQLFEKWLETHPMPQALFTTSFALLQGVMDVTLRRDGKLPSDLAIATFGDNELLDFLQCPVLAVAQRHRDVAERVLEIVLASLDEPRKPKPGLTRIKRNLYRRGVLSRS

Substance: His-tagged FruK (pET3a) for BLI (from UniProt P0AEW9 1-312) (enzyme)
- Kd: 2.1 nM
